In article doi:10.1101/2024.09.12.612744 (bioRxiv, 2024):

B1: PKD2 WT channel (hPKD2: 52-793) (domain or fragment, human, UniProt Q13563 52-793, looked up)
chain: LEIEMQRIRQAAARDPPAGAAASPSPPLSSCSRQAWSRDNPGFEAEEEEEEVEGEEGGMVVEMDVEWRPGSRRSAASSAVSSVGARSRGLGGYHGAGHPSGRRRRREDQGPPCPSPVGGGDPLHRHLPLEGQPPRVAWAERLVRGLRGLWGTRLMEESSTNREKYLKSVLRELVTYLLFLIVLCILTYGMMSSNVYYYTRMMSQLFLDTPVSKTEKTNFKTLSSMEDFWKFTEGSLLDGLYWKMQPSNQTEADNRSFIFYENLLLGVPRIRQLRVRNGSCSIPQDLRDEIKECYDVYSVSSEDRAPFGPRNGTAWIYTSEKDLNGSSHWGIIATYSGAGYYLDLSRTREETAAQVASLKKNVWLDRGTRATFIDFSVYNANINLFCVVRLLVEFPATGGVIPSWQFQPLKLIRYVTTFDFFLAACEIIFCFFIFYYVVEEILEIRIHKLHYFRSFWNCLDVVIVVLSVVAIGINIYRTSNVEVLLQFLEDQNTFPNFEHLAYWQIQFNNIAAVTVFFVWIKLFKFINFNRTMSQLSTTMSRCAKDLFGFAIMFFIIFLAYAQLAYLVFGTQVDDFSTFQECIFTQFRIILGDINFAEIEEANRVLGPIYFTTFVFFMFFILLNMFLAIINDTYSEVKSDLAQQKAEMELSDLIRKGYHKALVKLKLKKNTVDDISESLRQGGGKLNFDELRQDLKGKGHTDAEIEAIFTKYDQDGDQELTEHEHQQMRDDLEKEREDLDLDH
B2: PKD2 F629S variant channel (hPKD2: 52-793) (domain or fragment, human, UniProt Q13563 52-793, looked up)
chain: LEIEMQRIRQAAARDPPAGAAASPSPPLSSCSRQAWSRDNPGFEAEEEEEEVEGEEGGMVVEMDVEWRPGSRRSAASSAVSSVGARSRGLGGYHGAGHPSGRRRRREDQGPPCPSPVGGGDPLHRHLPLEGQPPRVAWAERLVRGLRGLWGTRLMEESSTNREKYLKSVLRELVTYLLFLIVLCILTYGMMSSNVYYYTRMMSQLFLDTPVSKTEKTNFKTLSSMEDFWKFTEGSLLDGLYWKMQPSNQTEADNRSFIFYENLLLGVPRIRQLRVRNGSCSIPQDLRDEIKECYDVYSVSSEDRAPFGPRNGTAWIYTSEKDLNGSSHWGIIATYSGAGYYLDLSRTREETAAQVASLKKNVWLDRGTRATFIDFSVYNANINLFCVVRLLVEFPATGGVIPSWQFQPLKLIRYVTTFDFFLAACEIIFCFFIFYYVVEEILEIRIHKLHYFRSFWNCLDVVIVVLSVVAIGINIYRTSNVEVLLQFLEDQNTFPNFEHLAYWQIQFNNIAAVTVFFVWIKLFKFINFNRTMSQLSTTMSRCAKDLFGFAIMFFIIFLAYAQLAYLVFGTQVDDFSTSQECIFTQFRIILGDINFAEIEEANRVLGPIYFTTFVFFMFFILLNMFLAIINDTYSEVKSDLAQQKAEMELSDLIRKGYHKALVKLKLKKNTVDDISESLRQGGGKLNFDELRQDLKGKGHTDAEIEAIFTKYDQDGDQELTEHEHQQMRDDLEKEREDLDLDH
B3: PKD2 R638C variant channel (hPKD2: 52-793) (domain or fragment, human, UniProt Q13563 52-793, looked up)
chain: LEIEMQRIRQAAARDPPAGAAASPSPPLSSCSRQAWSRDNPGFEAEEEEEEVEGEEGGMVVEMDVEWRPGSRRSAASSAVSSVGARSRGLGGYHGAGHPSGRRRRREDQGPPCPSPVGGGDPLHRHLPLEGQPPRVAWAERLVRGLRGLWGTRLMEESSTNREKYLKSVLRELVTYLLFLIVLCILTYGMMSSNVYYYTRMMSQLFLDTPVSKTEKTNFKTLSSMEDFWKFTEGSLLDGLYWKMQPSNQTEADNRSFIFYENLLLGVPRIRQLRVRNGSCSIPQDLRDEIKECYDVYSVSSEDRAPFGPRNGTAWIYTSEKDLNGSSHWGIIATYSGAGYYLDLSRTREETAAQVASLKKNVWLDRGTRATFIDFSVYNANINLFCVVRLLVEFPATGGVIPSWQFQPLKLIRYVTTFDFFLAACEIIFCFFIFYYVVEEILEIRIHKLHYFRSFWNCLDVVIVVLSVVAIGINIYRTSNVEVLLQFLEDQNTFPNFEHLAYWQIQFNNIAAVTVFFVWIKLFKFINFNRTMSQLSTTMSRCAKDLFGFAIMFFIIFLAYAQLAYLVFGTQVDDFSTFQECIFTQFCIILGDINFAEIEEANRVLGPIYFTTFVFFMFFILLNMFLAIINDTYSEVKSDLAQQKAEMELSDLIRKGYHKALVKLKLKKNTVDDISESLRQGGGKLNFDELRQDLKGKGHTDAEIEAIFTKYDQDGDQELTEHEHQQMRDDLEKEREDLDLDH

Legend:
[1] = molecular target: the molecule itself; experiment: SEC
[2] = molecular target: the molecule itself; experiment: cryo-EM structure

Row | Protein | binding result [1] | stoichiometry N [2]
1 | B1 | binds | –
2 | B2 | – | 4
3 | B3 | – | 4
